Where “and” joins values, the source holds several entries; their conditions need not be identical. Equal values may be shown once.
B1: Streptococcus pneumoniae NrdR (natural protein, Streptococcus pneumoniae TIGR4, UniProt P67318 1-157, looked up)
chain: MRCPKCGATKSSVIDSRQAEEGNTIRRRRECDECQHRFTTYERVEERTLVVVKKDGTREQFSRDKIFNGIIRSAQKRPVSSDEINMVVNRIEQKLRGRNENEIQSEDIGSLVMEELAELDEITYVRFASVYRSFKDVSELESLLQQITQSSKKKKER
notes: NrdR, transcriptional repressor of ribonucleotide reductase genes, S. pneumoniae TIGR4; the nrdR gene (SP_1713, AAK75791) cloned in pET30a(+) between NdeI and XhoI; molecular mass including the hexa-histidine tag 19.4 kDa; Oligomeric state depends on the nucleotides added (none, ATP, dATP + ATP); also called SpnNrdR; source: E. coli BL21(DE3), purified (HisTrap FF Ni-Sepharose, desalting); not …
B2: Listeria monocytogenes NrdR (natural protein, UniProt B8DHI6 1-154, looked up)
chain: MRCPTCQYNGTRVVDSRPADDGNSIRRRRECEKCGFRFTTFEKVEESPLIVVKKDGAREEFAREKVRRGLIRACEKRPVSAEQIEEIVNEVERELRNIGDSEIASDLIGEKVMNKLANLDEVAYVRFASVYRQFKDISVFVEELKDLMEKNKDR
notes: NrdR, transcriptional repressor of ribonucleotide reductase genes, L. monocytogenes serotype 1/2a str; S10403S; molecular mass including the hexa-histidine tag 19 kDa; Oligomeric state depends on the nucleotides added; also called LmoNrdR; L. monocytogenes NrdR; source: E. coli BL21(DE3), purified (HisTrap FF Ni-Sepharose, desalting); not shown: His6, C-terminal, kept

What was measured:
[1] = target: the molecule itself; assay: SEC; SpnNrdR 50 uM incubated with 0.5 mM ATP, 0.5 mM dATP and 2.5 mM MgCl; ATP and dATP 0.1 mM each in the buffer; Superdex S200 Increase, 4 C; 25 mM HEPES pH 7.2, 2.5 mM MgCl2, 15% glycerol, 250 mM NaCl, 0.1 mM TCEP
[2] = target: the molecule itself; assay: SEC; LmoNrdR 50 uM incubated with dATP + ATP and 5 mM MgCl; 0.1 mM of each nucleotide in the buffer; Superdex S200 Increase, 4 C; 25 mM Bis-Tris Propane pH 6.5, 5% glycerol, 5 mM MgCl2, 100 mM KCl, 1 mM DTT
[3] = target: the molecule itself; assay: SEC; LmoNrdR 50 uM, no nucleotides in protein or buffer (apo); Superdex S200 Increase, 4 C; 25 mM Bis-Tris Propane pH 6.5, 5% glycerol, 5 mM MgCl2, 100 mM KCl, 1 mM DTT; size from a calibration curve of globular standards
[4] = target: the molecule itself; assay: SEC; LmoNrdR 50 uM incubated with 1 mM ATP and 5 mM MgCl; 0.2 mM ATP in the buffer; Superdex S200 Increase, 4 C; 25 mM Bis-Tris Propane pH 6.5, 5% glycerol, 5 mM MgCl2, 100 mM KCl, 1 mM DTT

Protein | stoichiometry N [1] | stoichiometry N [2] | stoichiometry N [3] | stoichiometry N [4]
B1 | 4 |  |  | 
B2 |  | 4 | 2 and 4 | 8

— PMC12051234, “NrdR in Streptococcus and Listeria spp.: DNA Helix Phase Dependence of the Bacterial Ribonucleotide Reductase Repressor” (Molecular Microbiology, 2024)
